These results are taken from paper PMC5852461 (Biochemistry, 2018).

For assay [1], the target named is TatBC–strepII–His6 complex (E. coli) (UniProt P69425). In words: SPR; Biacore T200; TatBC complex captured (about 300 RU) on polyclonal TatB antibodies coupled to a CM5 chip; precursor as analyte at 1.9–30 μM, injected for 3 min; 25 °C; 20 mM MOPS-NaOH, 200 mM NaCl, 1 mM EDTA, 0.01% GDN, pH 8; 1:1 binding model. (In general: In SPR one partner is held on a chip, and binding of the other changes the refractive index at the surface.)

Assay [2] addresses TatBC–His6 complex (GDN-solubilized, purified) (E. coli) (UniProt P69425). In words: ITC; TatBC–His6 (45 μM) in the cell; titrant 150 μM HiPIP or 85 μM TorA signal peptide; 25 °C; 20 mM MOPS-NaOH, 200 mM NaCl, 1 mM EDTA, 0.01% GDN, pH 8; one-site model; molar ratio counted per TatC–His6.
For assay [3], the target named is T1, TatBC–His6 complex (GDN-solubilized, purified) (E. coli, UniProt P69425 1-171; P69423 1-258).
T1 sequence (looked up) 1: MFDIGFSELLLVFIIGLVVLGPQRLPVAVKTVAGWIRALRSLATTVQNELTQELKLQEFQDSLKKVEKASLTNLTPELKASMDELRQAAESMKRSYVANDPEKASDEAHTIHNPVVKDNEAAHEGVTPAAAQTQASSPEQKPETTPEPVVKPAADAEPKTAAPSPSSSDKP
T1 sequence (looked up) 2: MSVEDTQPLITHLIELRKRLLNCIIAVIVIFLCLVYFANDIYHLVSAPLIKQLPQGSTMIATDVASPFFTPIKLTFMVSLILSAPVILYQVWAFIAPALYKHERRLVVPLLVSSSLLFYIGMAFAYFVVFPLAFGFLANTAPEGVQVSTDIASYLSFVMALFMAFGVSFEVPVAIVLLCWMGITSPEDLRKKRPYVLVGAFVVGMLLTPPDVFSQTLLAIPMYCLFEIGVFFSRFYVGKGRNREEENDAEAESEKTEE
The assay is described as above. The conditions noted are these: both partners purified.

By Kd is commonly meant the equilibrium constant for the complex coming apart. Usually koff stands for the rate constant with which the complex falls apart. Broadly, the kon is a measure of how fast the partners come together. High values mean fast association, low ones slow association. Consider “E. coli CueO precursor, hexahistidine-tagged (from UniProt P36649 29-516) (natural protein)”, for which, in assay [1], the dissociation constant Kd stood at 4.5 µM, the koff was found to be 0.0018 s⁻¹ and the kon amounted to 400 M⁻¹ s⁻¹.

Take “high-potential iron–sulfur protein (HiPIP) precursor from Acidithiobacillus ferrooxidans, His6-tagged (natural protein)”: in assay [2], the Kd stood at 6 µM and the stoichiometry N (HiPIP per TatC) was found to be 0.33.

Usually stoichiometry N stands for a count of units in the complex or per binding partner. On to SRRRFLAQLGGLTVAGMLGPSLLTPRR [TorA signal peptide (residues 10–36)], for which, in assay [3], the Kd was about 0.5 µM and the “stoichiometry N” value was 0.44 peptide per TatC.
